Measurements from patent publication US20190353647A1 (UNIVERSITE DE BORDEAUX, published 2019).

Target: YFP-CaM (human, UniProt P0DP23 2-149)
Experiment: BRET titration curves in live HEK293T cells

binding result: binds
B1: TRPV1-Luc (receptor)
chain: MKKWSSTDLGAAADPLQKDTCPDPLDGDPNSRPPPAKPQLSTAKSRTRLFGKGDSEEAFPVDCPHEEGELDSCPTITVSPVITIQRPGDGPTGARLLSQDSVAASTEKTLRLYDRRSIFEAVAQNNCQDLESLLLFLQKSKKHLTDNEFKDPETGKTCLLKAMLNLHDGQNTTIPLLLEIARQTDSLKELVNASYTDSYYKGQTALHIAIERRNMALVTLLVENGADVQAAAHGDFFKKTKGRPGFYFGELPLSLAACTNQLGIVKFLLQNSWQTADISARDSVGNTVLHALVEVADNTADNTKFVTSMYNEILMLGAKLHPTLKLEELTNKKGMTPLALAAGTGKIGVLAYILQREIQEPECRHLSRKFTEWAYGPVHSSLYDLSCIDTCEKNSVLEVIAYSSSETPNRHDMLLVEPLNRLLQDKWDRFVKRIFYFNFLVYCLYMIIFTMAAYYRPVDGLPPFKMEKTGDYFRVTGEILSVLGGVYFFFRGIQYFLQRRPSMKTLFVDSYSEMLFFLQSLFMLATVVLYFSHLKEYVASMVFSLALGWTNMLYYTRGFQQMGIYAVMIEKMILRDLCRFMFVYIVFLFGFSTAVVTLIEDGKNDSLPSESTSHRWRGPACRPPDSSYNSLYSTCLELFKFTIGMGDLEFTENYDFKAVFIILLLAYVILTYILLLNMLIALMGETVNKIAQESKNIWKLQRAITILDTEKSFLKCMRKAFRSGKLLQVGYTPDGKDDYRWCFRVDEVNWTTWNTNVGIINEDPGNCEGVKRTLSFSLRSSRVSGRHWKNFALVPLLREASARDRQSAQPEEVYLRQFSGSLKPEDAEVFKSPAASGEKVPVNSGGGGS
notes: whole, on cells; BRET donor fusion, Luc at the C-terminus of TRPV1; transiently expressed in live HEK293T cells; also called hTRPV1-Luc; not shown: Renilla Luciferase II (Luc, Luc2, a mutant of Renilla reniformis luciferase)
